Columns and labels:
Settings in all cases: both partners purified
[1] = molecular target: T1, GST-MTR4-∆N (human, UniProt P42285 75-1042); assay: pull-down; GST-MTR4∆N (WT or mutants) as bait, 30 μM, with 60 μM Trx-NOP53^84–123 in 30 μl, glutathione sepharose; 50 mM Hepes pH 7.5, 150 mM NaCl, 5% glycerol, 0.05% NP40, 1 mM DTT, 4 °C; SDS-PAGE, Coomassie
T1 construct: Tag is cleavable with 3C protease; kept for the GST pull-downs; also called GST-tagged MTR4∆N; source: E. coli BL21 star (DE3), purified (Ni-NTA, heparin, SEC); not shown: 6xHis-GST, N-terminal, kept
T1 sequence (looked up): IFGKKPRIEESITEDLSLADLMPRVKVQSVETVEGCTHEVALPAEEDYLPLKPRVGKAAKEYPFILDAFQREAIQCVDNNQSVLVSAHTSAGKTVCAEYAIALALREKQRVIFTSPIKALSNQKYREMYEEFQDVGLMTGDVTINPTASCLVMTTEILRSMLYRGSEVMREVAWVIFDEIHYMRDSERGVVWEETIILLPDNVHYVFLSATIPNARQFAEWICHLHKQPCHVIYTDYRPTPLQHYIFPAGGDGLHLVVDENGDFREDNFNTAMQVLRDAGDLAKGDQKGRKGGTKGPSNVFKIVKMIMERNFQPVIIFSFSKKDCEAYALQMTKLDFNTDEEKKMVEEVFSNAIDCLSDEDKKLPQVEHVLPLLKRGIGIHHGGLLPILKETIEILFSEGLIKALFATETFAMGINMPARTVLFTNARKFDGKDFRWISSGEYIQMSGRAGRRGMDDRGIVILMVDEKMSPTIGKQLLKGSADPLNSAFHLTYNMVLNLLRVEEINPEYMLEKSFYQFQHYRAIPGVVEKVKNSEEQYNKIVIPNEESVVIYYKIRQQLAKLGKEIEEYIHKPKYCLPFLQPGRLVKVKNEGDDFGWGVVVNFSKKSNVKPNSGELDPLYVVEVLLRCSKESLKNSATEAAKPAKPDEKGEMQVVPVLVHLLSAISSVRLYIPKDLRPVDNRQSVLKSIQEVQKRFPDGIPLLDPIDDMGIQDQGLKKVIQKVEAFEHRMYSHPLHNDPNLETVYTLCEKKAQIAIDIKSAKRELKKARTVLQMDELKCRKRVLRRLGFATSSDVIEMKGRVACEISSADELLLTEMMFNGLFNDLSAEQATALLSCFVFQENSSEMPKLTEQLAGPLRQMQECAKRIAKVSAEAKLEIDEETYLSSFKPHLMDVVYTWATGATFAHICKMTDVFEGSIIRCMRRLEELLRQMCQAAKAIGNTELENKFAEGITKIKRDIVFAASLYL

[2] = molecular target: T2, GST-MTR4∆N R743E (human, UniProt P42285 75-1042, R743E); assay: as above
T2 construct: also called R743E mutant; source: E. coli BL21 star (DE3), purified (Ni-NTA, heparin, SEC); not shown: 6xHis-GST, N-terminal, kept
T2 sequence (looked up): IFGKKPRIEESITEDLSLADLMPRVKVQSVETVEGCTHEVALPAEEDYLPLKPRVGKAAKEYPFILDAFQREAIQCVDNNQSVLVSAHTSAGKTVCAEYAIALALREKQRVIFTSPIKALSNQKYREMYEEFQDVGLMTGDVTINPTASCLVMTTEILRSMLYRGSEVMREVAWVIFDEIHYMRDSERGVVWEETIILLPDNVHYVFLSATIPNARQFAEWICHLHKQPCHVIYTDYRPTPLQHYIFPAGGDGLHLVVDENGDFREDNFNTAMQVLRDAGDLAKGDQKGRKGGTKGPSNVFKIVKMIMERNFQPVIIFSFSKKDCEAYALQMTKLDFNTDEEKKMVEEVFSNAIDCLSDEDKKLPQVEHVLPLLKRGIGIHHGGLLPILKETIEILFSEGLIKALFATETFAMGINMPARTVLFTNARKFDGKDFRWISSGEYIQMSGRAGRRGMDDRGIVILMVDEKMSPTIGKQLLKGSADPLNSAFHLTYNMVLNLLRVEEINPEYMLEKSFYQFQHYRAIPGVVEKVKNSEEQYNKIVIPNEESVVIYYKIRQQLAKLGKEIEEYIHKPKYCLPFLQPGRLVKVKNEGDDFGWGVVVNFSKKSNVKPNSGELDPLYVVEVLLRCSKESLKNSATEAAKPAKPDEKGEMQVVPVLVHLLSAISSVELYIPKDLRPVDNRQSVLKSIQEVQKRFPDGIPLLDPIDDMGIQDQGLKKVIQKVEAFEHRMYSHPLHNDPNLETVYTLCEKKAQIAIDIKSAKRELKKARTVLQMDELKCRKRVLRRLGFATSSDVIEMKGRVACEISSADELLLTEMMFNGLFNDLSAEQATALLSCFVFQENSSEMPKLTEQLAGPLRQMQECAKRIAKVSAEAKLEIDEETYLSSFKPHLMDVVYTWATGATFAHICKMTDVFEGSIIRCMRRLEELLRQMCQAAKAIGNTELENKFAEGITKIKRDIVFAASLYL

[3] = molecular target: T3, GST-MTR4∆N F677E (human, UniProt P42285 75-1042, F677E); assay: as above
T3 construct: source: E. coli BL21 star (DE3), purified (Ni-NTA, heparin, SEC); not shown: 6xHis-GST, N-terminal, kept
T3 sequence (looked up): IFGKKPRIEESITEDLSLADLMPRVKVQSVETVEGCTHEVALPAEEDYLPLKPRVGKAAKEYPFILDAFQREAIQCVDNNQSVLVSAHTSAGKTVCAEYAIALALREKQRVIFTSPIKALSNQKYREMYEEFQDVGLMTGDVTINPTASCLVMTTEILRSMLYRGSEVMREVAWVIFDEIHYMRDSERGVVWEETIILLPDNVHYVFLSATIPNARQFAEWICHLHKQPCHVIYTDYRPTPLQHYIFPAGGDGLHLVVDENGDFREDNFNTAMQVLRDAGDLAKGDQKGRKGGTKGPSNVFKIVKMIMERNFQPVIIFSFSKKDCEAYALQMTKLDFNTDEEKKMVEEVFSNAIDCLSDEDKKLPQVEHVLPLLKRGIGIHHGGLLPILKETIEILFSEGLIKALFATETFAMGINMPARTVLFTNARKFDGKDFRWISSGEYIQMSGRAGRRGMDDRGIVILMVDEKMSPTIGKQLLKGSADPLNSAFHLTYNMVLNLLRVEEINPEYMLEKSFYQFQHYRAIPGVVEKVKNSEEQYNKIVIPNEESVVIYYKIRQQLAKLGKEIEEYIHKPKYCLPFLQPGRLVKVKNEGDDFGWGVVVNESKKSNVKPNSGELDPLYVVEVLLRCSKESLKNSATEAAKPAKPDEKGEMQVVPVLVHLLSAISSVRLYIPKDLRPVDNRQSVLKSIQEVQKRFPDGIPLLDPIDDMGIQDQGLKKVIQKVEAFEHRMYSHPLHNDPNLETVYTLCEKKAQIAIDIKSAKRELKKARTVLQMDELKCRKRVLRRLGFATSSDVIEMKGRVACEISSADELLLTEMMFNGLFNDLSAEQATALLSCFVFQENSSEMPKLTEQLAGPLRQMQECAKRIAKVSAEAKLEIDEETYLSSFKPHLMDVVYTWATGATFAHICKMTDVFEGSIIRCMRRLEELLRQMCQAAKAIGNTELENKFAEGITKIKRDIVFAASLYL

[4] = molecular target: T4, MTR4-∆N (human, UniProt P42285 75-1042); assay: ITC; 500 µM NVL injected into 40 µM MTR4-∆N; 25 °C; 50 mM Hepes/NaOH pH 7.5, 150 mM NaCl, 0.5 mM TCEP
T4 construct: Used in ITC, named without GST; the tag was probably cleaved ('when appropriate'); also called MTR4-∆N (the reactant); source: E. coli BL21 star (DE3), purified (Ni-NTA, heparin, SEC)
T4 sequence (looked up): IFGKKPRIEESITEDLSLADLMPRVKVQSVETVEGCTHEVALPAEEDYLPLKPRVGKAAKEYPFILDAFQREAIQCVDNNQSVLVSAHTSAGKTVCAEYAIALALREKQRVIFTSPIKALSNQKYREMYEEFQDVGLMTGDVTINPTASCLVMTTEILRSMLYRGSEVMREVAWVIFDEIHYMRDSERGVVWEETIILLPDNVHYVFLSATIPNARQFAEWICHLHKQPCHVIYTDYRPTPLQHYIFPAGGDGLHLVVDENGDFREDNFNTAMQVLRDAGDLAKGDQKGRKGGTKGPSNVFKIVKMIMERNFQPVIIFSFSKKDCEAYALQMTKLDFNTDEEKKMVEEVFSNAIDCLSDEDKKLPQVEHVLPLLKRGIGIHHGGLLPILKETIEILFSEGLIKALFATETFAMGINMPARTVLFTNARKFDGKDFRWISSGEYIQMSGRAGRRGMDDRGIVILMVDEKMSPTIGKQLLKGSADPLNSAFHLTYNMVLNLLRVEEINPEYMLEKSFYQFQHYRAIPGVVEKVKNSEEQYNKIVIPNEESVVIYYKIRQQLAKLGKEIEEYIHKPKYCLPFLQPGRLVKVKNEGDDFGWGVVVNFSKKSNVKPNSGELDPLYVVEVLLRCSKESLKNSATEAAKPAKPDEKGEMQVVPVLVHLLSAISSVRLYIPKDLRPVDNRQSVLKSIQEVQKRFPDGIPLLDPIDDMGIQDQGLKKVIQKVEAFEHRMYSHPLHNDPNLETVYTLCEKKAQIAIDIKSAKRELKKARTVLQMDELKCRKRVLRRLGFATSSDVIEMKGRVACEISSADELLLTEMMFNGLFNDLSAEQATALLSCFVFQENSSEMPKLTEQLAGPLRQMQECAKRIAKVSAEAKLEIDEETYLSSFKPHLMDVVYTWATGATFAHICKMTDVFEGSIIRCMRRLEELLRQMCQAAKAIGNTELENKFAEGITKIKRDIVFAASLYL

[5] = molecular target: T5, MTR4∆N2 (70–1042) (human, UniProt P42285 70-1042); assay: crystal structure; MTR4∆N2 (70–1042) mixed with 2 molar excess of NVL (167–216), with ADP and MgCl2; 3.07 Å, space group P6(1); PDB 6RO1
T5 construct: human MTR4; Crystallised with ADP and MgCl2 in the buffer; source: E. coli, purified; GST fusion cleaved with TEV; not shown: GST, N-terminal, cleaved
T5 sequence (looked up): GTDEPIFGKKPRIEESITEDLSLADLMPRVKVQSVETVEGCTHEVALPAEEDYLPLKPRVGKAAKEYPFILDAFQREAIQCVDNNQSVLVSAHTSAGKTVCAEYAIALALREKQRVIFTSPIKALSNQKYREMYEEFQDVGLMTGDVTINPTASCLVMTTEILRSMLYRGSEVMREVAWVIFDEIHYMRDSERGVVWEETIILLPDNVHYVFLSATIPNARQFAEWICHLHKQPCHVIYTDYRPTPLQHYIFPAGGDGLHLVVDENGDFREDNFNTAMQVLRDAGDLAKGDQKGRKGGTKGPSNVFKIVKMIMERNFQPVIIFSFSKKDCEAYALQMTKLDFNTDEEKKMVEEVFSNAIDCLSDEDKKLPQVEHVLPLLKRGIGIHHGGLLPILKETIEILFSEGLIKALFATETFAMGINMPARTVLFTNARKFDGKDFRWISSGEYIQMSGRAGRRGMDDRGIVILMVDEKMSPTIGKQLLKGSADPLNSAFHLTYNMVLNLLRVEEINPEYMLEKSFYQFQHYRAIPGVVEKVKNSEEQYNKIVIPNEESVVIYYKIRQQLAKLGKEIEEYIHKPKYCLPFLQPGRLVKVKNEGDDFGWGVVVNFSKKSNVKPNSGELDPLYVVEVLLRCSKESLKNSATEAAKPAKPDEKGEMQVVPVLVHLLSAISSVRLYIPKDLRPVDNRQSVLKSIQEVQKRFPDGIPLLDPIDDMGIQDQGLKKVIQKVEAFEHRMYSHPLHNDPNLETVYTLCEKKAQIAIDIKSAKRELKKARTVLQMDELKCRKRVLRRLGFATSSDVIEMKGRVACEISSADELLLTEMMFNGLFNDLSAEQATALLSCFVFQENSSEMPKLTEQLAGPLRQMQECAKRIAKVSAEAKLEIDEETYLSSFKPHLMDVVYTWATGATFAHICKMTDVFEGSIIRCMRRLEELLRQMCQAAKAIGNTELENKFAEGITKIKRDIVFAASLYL

[6] = molecular target: T6, MTR4-KOW (human, UniProt P42285 645-787); assay: NMR titration; 1H-15N HSQC of 53 μM 15N-labelled MTR4-KOW with 0.25, 0.5, 1, 2 and 6 molar equivalents of unlabeled NVL^167–216; 298 K; phosphate buffered saline, 10% D2O
T6 construct: human MTR4 KOW domain, residues 645–787; Named without GST in MST, NMR and ITC; the methods say the His-GST tag was cleaved with 3C protease 'when appropriate', so it was probably removed; Isotope-labelled for NMR; also called unlabeled MTR4 KOW; 15N-labelled MTR4-KOW; source: E. coli BL21 star (DE3), purified (Ni-NTA, heparin, SEC); minimal medium with 15N/13C for NMR
T6 sequence (looked up): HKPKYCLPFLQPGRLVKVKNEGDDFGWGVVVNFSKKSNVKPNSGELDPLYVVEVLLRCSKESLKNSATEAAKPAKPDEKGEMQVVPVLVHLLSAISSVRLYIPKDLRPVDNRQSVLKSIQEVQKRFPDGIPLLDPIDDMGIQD

Measured: binding result

B1: Trx-NOP53^84–123 (domain or fragment)
chain: not shown
notes: human NOP53 (also known as GLTSCR2), residues 84–123; also called human Nop53 orthologue; human Nop53; not shown: Trx, N-terminal, kept
binds: [1] | [2] | [3]

B2: NVL^167–216 (peptide, UniProt O15381 167-216, looked up)
chain: KDSEGGWFIDKTPSVKKDSFFLDLSCEKSNPKKPITEIQDSKDSSLLESD
notes: Named without Trx in ITC, NMR and crystallisation; the methods say tags were cleaved with 3C protease 'when appropriate', so the tag was probably removed; also called NVL peptide; source: E. coli BL21 star (DE3), purified (Ni-NTA, SEC)
binds: [4] | [5] | [6]
